Source: the nanobody polyreactivity screen of Harvey et al. (2022)

Assay: yeast display, Sf9 membrane polyspecificity reagent, FACS + sequencing; frameworks hold sequencing errors
Outline: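 Genes from sorted yeast were amplified by colony PCR, read by MiSeq 2 × 250 sequencing and filtered on CDR length. These cells carried a synthetic nanobody library in Saccharomyces cerevisiae BJ5465 and were sorted by FACS into low and high (top ~1%) gates on anti-HA and streptavidin fluorescence. Polyreactivity is labelled according to the gate of origin.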

Row | Sequence | polyreactivity (PSR sort gate)
1 | QVQLVESGGGLVQAGGSLRLSCAASGRIFVTNTMGWYRQAPGKERELVAAIDNSAGSTYYADSVKGRFTISRDNAKNTVYLQMNSLKPEDTAVYYCAADYPPYYGYGYWGQGTQVTVSS | low polyreactivity
2 | QVQLVESGGGLVQAGGSLRLSCAASGRIFVVYAMGWYRQAPGKERELVAAITYGGGSTHYADSVKGRFTISRDNAKNTVYLQMNSLKPEDTAVYYCAADLFYHSYGYEYWGQGTQVTVSS | low polyreactivity
3 | QVQLVESGGGLVQAGGSLRLSCAASGRIFVVYVMGWYRQAPGKEREFVAAITWGGGNTYYADSVKGRFTISRDNAKNTVYLQMNSLIPEDTAVYYCAAAPRKYVWMDYWGQGTQVTVSS | low polyreactivity
4 | QVQLVESGGGLVQAGGSLRLSCAASGRIFVVYVMGWYRQATGKEREFVAAITWGGGNTYYADSVKGRFTISRDNAKNTVYLQMNSLKPEDTAVYYCAAAPRKYVWMDYWGQGTQVTVSS | low polyreactivity
5 | QVQLVESGGGLVQAGGSLRLSCAASGRIFVWNAMGWYRQAPGKERELVAAITSSGGNTYYADSVKGRFTISRDNAKNTVYLQMNSLKPEDTAVYYCAARSSSRTQATTRYGYWGQGTQVTVSS | high polyreactivity
6 | QVQLVESGGGLVQAGGSLRLSCAASGRIFVYNAMGLYRQAPGKERELVAAISSTGSTNYADSVKGRFTISRDNAKNTVYLQMNSLKPEDTAVYYFAAVYYFYGYSGYYGQYDYWGQGTQVTVSS | low polyreactivity
7 | QVQLVESGGGLVQAGGSLRLSCAASGRIFVYNTMGWYRQAPGKERELVAAIDWSGGSKYYADSVKGRFTISRDNAKNTVYLQMNSLKPEDTAVYYCNADSLIGMDYWGQGTQVTVSS | high polyreactivity
8 | QVQLVESGGGLVQAGGSLRLSCAASGRIFVYNVMGRYRQAPGKERDLVAAISWGTGSTYADSVKGRFTISRDNAKNTVYLQMNSLKPEDTAVYYCAADSFIPPYDHWGLGTQVTVSS | low polyreactivity
9 | QVQLVESGGGLVQAGGSLRLSCAASGRIFVYNVMGWYRQAPGKERELVAAISWGTGSTYADSVKGRFTISRDNAKNTVYLQMNSLKPEDTAVYYCAADSFIPPYDHWGQGTQVTVSS | low polyreactivity
10 | QVQLVESGGGLVQAGGSLRLSCAASGRIFVYYAMGWYRQAPGKEMELVASISYSGASTYYADSVKGRFTISRDNAKNTVYLQMNSLKPEDTAVYYCNTDGDDFFHVIYDYWGQGTQVTVSS | low polyreactivity
11 | QVQLVESGGGLVQAGGSLRLSCAASGRIFVYYAMGWYRQAPGKEREFVAAISSRDDSTYYADSVKGRFTISRDNAKNTVYLQMNSLKPEDTAVYYCAADWRLGVGYDYWGQGSQVTVSS | low polyreactivity
12 | QVQLVESGGGLVQAGGSLRLSCAASGRIFVYYPMGWYRQAPGIERELVAAINAGGSTNYADSVKGRFTISRDNAKNTVYLQMNSLKPEDTAVYYCAAVRRSRYSYRGYYWGQGTQVTVSS | high polyreactivity
13 | QVQLVESGGGLVQAGGSLRLSCAASGRIFVYYTMGWYRQAPGKERELVAAITGSGGSTYYADSVKGRFTISRDNAKNTVYLQMNSLKPEDTAVYSCAVYDSYRKFKYWGQGTQVTVSS | high polyreactivity
14 | QVQLVESGGGLVQAGGSLRLSCAASGRIFWANAMGWYRQAPGKERELVAAINRRTGITYYADSVKGRFTISRDNAKNTVYLQMNSLNPEDTAVYYCAAARGKDGYSGQGTQVTVSS | high polyreactivity
15 | QVQLVESGGGLVQAGGSLRLSCAASGRIFWANAMGWYRQAPGKERELVAAISNSGVSTYYADSVKGRFTISRDNAKHTVYLQMNSLKPEDTAVYYCAADRYRKYYYWGQGTLVTVSS | high polyreactivity
16 | QVQLVESGGGLVQAGGSLRLSCAASGRIFWAYAMGWYRQAPGKERELVAGITFTGGRTYYADSVKGRFTISRDNAKNTVYLQMNSLKPEDTAVYYCAAAGLDVGRKDRDGYWGQGTQVTVSS | low polyreactivity
17 | QVQLVESGGGLVQAGGSLRLSCAASGRIFWGNALGWYRQAPGKVRELVAAITRRGGTTFYADSVKGRFTISRDNAKNTVYLQKNSLKPEDTAGYYCAARRYCQYDGYDSGGQGTQVTVSS | high polyreactivity
18 | QVQLVESGGGLVQAGGSLRLSCAASGRIFWGNAMGWYRQAPGKERELVAAISSSGGSTYYADSVKGRFTISRDNAKNTVYLQMNSLKPEDTAVYYCAARYPTYYYRYDYWGQGTQVTVSS | high polyreactivity
19 | QVQLVESGGGLVQAGGSLRLSCAASGRIFWGYAMGWYRQAPGKERELVARITSGGDTYYADSVKGRFTISRDNAKNTVYLQMNSLKPEDTAVYYCNADVGTEWDNYPEVDYWGQGTQVTVSS | low polyreactivity
20 | QVQLVESGGGLVQAGGSLRLSCAASGRIFWGYDMGWYRQAPGKERELVAAINWSGGITNYADSVKGRFTISRDNAKNTVYLQMNSLKPEDTAVYYCAADTYWHRYYWGQGTQVTVSS | high polyreactivity
21 | QVQLVESGGGLVQAGGSLRLSCAASGRIFWPYAMGWYRPAPGKERELVAAITSGGSTYYADSVKGRFTISRDNAKNTVYLQMNSLKPEVTAVYYCAKRSSGVSVPVAYGGIKRYNSWGQGTQVTVSS | low polyreactivity
22 | QVQLVESGGGLVQAGGSLRLSCAASGRIFWPYAMGWYRQAPGKERELVAAISRGGSTYYADSVKGRFTISRDNAKNTVYLQINSLKPEDTAVYYCAVAFRGSYRPAYYYWRQGTQVTVSS | high polyreactivity

Row | Sequence | polyreactivity (PSR sort gate)
23 | QVQLVESGGGLVQAGGSLRLSCAASGRIFWPYAMGWYRQAPGKERELVAAISWGDGTTYYADSVKGRFTISRDNAKNTVYLQMNSLKPEDTAVYYCAVELWPDYVTDIRYYDGFDYWGQGTQVTVSS | low polyreactivity
24 | QVQLVESGGGLVQAGGSLRLSCAASGRIFWPYAMGWYRQAPGKERELVAAITSGGSTYYADSVKGRFTISRDNAKNTVYLQMNSLKPEDTAVYYCNAKLRRHYDHLYDYWGQGTQVTVSS | low polyreactivity
25 | QVQLVESGGGLVQAGGSLRLSCAASGRIFWRYAMGWYRQAPGKERELVAGITYSGGRTYYADSVKGRFTISRDNAKNTVYLQMNSLTPEDTAVYYCAARGYFDALFDYWGQGTQVTVSS | low polyreactivity
26 | QVQLVESGGGLVQAGGSLRLSCAASGRIFWRYAMGWYRQAPGKERQLVAGITYSGGRTYYADSVKGRFTISRDNAKNTVYLQMNSLKPEDTAVYYCAARGYFDALFDYWGQGTQVTVSS | low polyreactivity
27 | QVQLVESGGGLVQAGGSLRLSCAASGRIFWSNAMGWYRQAPGKERELVAAISYSGGSTYYADSVKGRFTISRDNAKNTVYLQMNSLKPEDTAVYYCAALFRPRVHRFDYWGQGTQVTVSS | low polyreactivity
28 | QVQLVESGGGLVQAGGSLRLSCAASGRIFWSYAMGWYRPAPGKERELVAAISYSGGGTYYADSVKGRFTISRDNAKNTVYLQMNSLKPEDTAVYYCAAETYYAPYDYWGQGTQVTVSS | high polyreactivity
29 | QVQLVESGGGLVQAGGSLRLSCAASGRIFWTYAMGWYRQAPGKERELVASITWSGGSTYYADSVKGRFTISRDNAKNTVYLQMNSLKPEDTAVYYCHTDVLAPYDSGYWGQGTQVTVSS | low polyreactivity
30 | QVQLVESGGGLVQAGGSLRLSCAASGRIFWYYAMGGYRQAPGKEREFVATINTSGGSTYYADSLKGRFTISRDYARSTVCLQMNSLTPEDTAVYYCYAACRYYRTEYYSWGQGTQVTVSS | low polyreactivity
31 | QVQLVESGGGLVQAGGSLRLSCAASGRIFWYYAMGWSRQAPGKERELVATISSRSGSTYYADSVKGRFTISRDNAKNTVYLQMNSLKPEDTAVYYCAAGTPYYLGYRHNTGLFDYWGQGTQVTVSS | high polyreactivity
32 | QVQLVESGGGLVQAGGSLRLSCAASGRIFWYYAMGWYRQAPGKERELVAAISWSGGTTYYADSVKGRFTISRDNAKNTVYLQMNSLKPEDTAVYYCAAVFQYGYGEDYWGQGTQVTVSS | high polyreactivity
33 | QVQLVESGGGLVQAGGSLRLSCAASGRIFWYYAMGWYRQAPGKERELVARITSGGRTYYADSVKGRFTISRDNAKNTVYLQMNSLKPEDTAVYYCARRGRKAYGYWGQGTQVTVSS | high polyreactivity
34 | QVQLVESGGGLVQAGGSLRLSCAASGRIFWYYAMGWYRQAPGKERELVASITRGNNTYYADSVKGRFTISRDNAKNPVYLQMNSLIPEDTAVYYCNAYRVRYTVDSVFYGYDYWGQGTHVTVSS | high polyreactivity
35 | QVQLVESGGGLVQAGGSLRLSCAASGRIFWYYSMGRYRQAPATEREVVATITTRSGSTYYADSVKGRFTISRDNAKNTVYLQMNSMKPEDTAGYYCAADWPLLYTGSHSQTKYGYWGQGTQVTVSS | high polyreactivity
36 | QVQLVESGGGLVQAGGSLRLSCAASGRIFWYYVMGWSRQAPGKEREFVASISSGGSTYYADSVKGRFTISRDNAKNTVYLQMNSLKPEDTAVYYCNAYVYGQRVWYDYWGQGTQVTVSS | high polyreactivity
37 | QVQLVESGGGLVQAGGSLRLSCAASGRIFYANAMGWYRQAPGKERELVAAISSGGSTYYADSVKGRFTISRDNAKNTVYLKMYSLKPEDTAVYYCAASTVGQTFSYYVDTYDYWGQGTQVTVSS | low polyreactivity
38 | QVQLVESGGGLVQAGGSLRLSCAASGRIFYANAMGWYRQAPGKERELVAGISSGGITNYADSVKGRFTISRDNAKITVYLQMNSLKPEDTAVYYCAVESWNRWRNRNDYWGQGTQVTVSS | low polyreactivity
39 | QVQLVESGGGLVQAGGSLRLSCAASGRIFYAYAMGWYRQAPGKERELVAGISRGSSTNYADSVKGRFTISRDNAKNTVYLQMNSLKPEDTAVYYSAADVHRRGRYHSTYDYWGQGTQVTVSS | low polyreactivity
40 | QVQLVESGGGLVQAGGSLRLSCAASGRIFYAYVMGWYRQAPGKERELVAAITSSGGSTYYADSVKGRFTISRDNAKNTVYLQMNSLKPEDTAVYYCNARSYPRWLRYDYWGQGTQVTVSS | low polyreactivity
41 | QVQLVESGGGLVQAGGSLRLSCAASGRIFYAYVMGWYRQAPGKERELVADITSSGSTNYADSVKGRFTISRDNAKNTVYLQMNSLKPEDTAVYYCAKVPYAYQVRRKFGYWGQGTQVTVSS | low polyreactivity
42 | QVQLVESGGGLVQAGGSLRLSCAASGRIFYDNTMGWYRQAPGKERELVAAISVSGGRTYYADSVKGRFTISRDNAKNTVYLQLNSLKPEDTAVYYCAADRGGEYWGQGTQVTVSS | high polyreactivity
43 | QVQLVESGGGLVQAGGSLRLSCAASGRIFYEYAMGWYRQAPGKERELVAAITRGDSTYYADSVKGRFTISRDNAKNTVYLQMNSLKPEDTAVYFCNAGVFDYSGDSNYWGQGTQVTVSS | low polyreactivity
